# In the nanobody polyreactivity screen of Harvey et al. (2022):
# Assay: yeast display, Sf9 membrane polyspecificity reagent, FACS + sequencing; frameworks hold sequencing errors
# In short: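 Galactose induction of a Saccharomyces cerevisiae BJ5465 synthetic nanobody display library ran 36–48 hours. The cells were then stained for 1 hour at 4 °C with 10% biotinylated, detergent-solubilized Sf9 membrane reagent, pulled down on streptavidin microbeads and FACS-sorted into low and high (top ~1%) gates on expression and reagent-binding fluorescence. Labels for polyreactivity follow the gate of origin.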
row,Sequence,polyreactivity (PSR sort gate)
1,QVQLVESGGGLVQAGGSLRLSCAASGRIFYNNAMGWYRQAPGKERELVAAITYSGGSTYYADSVKGRFTISRDNAKNTVYLQMNSLKPEDTAVYYCAAEYYGPYSEGGESYDYWGQGTQVTVSS,low polyreactivity
2,QVQLVESGGGLVQAGGSLRLSCAASGSTFYYYSMGWYRQAPGKERELVASISDDGSTNYADSVKGRFTISRDNAKNTVYLQMNSLKPEDTAVYYCAAVWWHQFGSAWYQMGYWGQGTQVTVSS,low polyreactivity
3,QVQLVESGGGLVQAGGSLRLSCAASGRTFRGYVMGWYRQAPGKEREFVAAITRSDGSTYYADSVKGRFTISRDNAKNTVYLQMNSLKPEDTAVYYCAADLRRFQSYYYWGQGTQVTVSS,high polyreactivity
4,QVQLVESGGGLVQAGGSLRLSCAASGLTFVTYVMGWYRQAPGKERELVAAISYSGGSTYYADSVKGRFTISRDNAKNTVYLQMNSLKPEDTAVYYCAAEWYGYQEDDYRGQGTQVTVSS,low polyreactivity
5,QVQRVESGGGLVQAGGSLRLSCAASGFIITRYSMGWYRQAPGKEREMVAVINSSGGSTYYADSVKGRFTISRDTAKNTVYVQMNSLKPEDTAVYYCNALSRYRIWSYGYWGQGTQVTVSS,high polyreactivity
6,QVHLVESGRGLFQAGGSLRLSCAASGRIFPGYAMGWSRQAPGKESELVAGITWRTARTYYAYSVKGRFTISRDIAKNTVYLQMNSLKPEDTAVYYCAAKYARYGRDVIFDYWGQGTEVTVSS,high polyreactivity
7,QVQLVESGGGLFQAGGSLRLSCAPSGFTFSWYDMGWYRQAPGKERELVAAISLSGDRTYYADSVKGRFTISRDNAKNTVYLQMNSLKPEDTAVYYCAADERVDQCWIRMDYWGQGTQVTVSS,low polyreactivity
8,QVQLVESGGGLVQAGGSLRLSCAASGYIFPSYAMGWYRQAPGKERELVAVITTRGSTYYADSVKGRFTISRDNAKNTVYLQMNSVKAEETAVYYCAAAPYVYWFFVRPYGDDYWGLGTQVTVSS,high polyreactivity
9,QVQLVESGGGLFQAGGSLRISCAASGSTFRGYVMGWYRQAPGKERELVAAISRSGTSTYYADSVKGRFTISRDNAKNTVYLQMNSLKPEDTAVYYCAAQLYGHGEDYWGQGTQVTVSS,high polyreactivity
10,QVQLVESGGGLVQAGGSLRLICAASGITFYYYAMGWYRQAPGKERELVAAITFTGGSTYYADSVKGRFTISRDNAKNTVYLQMNSLKPEDTAVYYCNRLGPLGDQQQYDYWGQGTQVTVSS,low polyreactivity
11,QVQLVESGGGLVQAGGSLRLSCAASGRTFRYYAMGWYRQAPGKERELVAAINRGGSTYYADSVKGRFTISRDNAKNTVYLQMNSLKPEDTAVYYCNTARGSKDPPHYYWGQGSQVTVSS,high polyreactivity
12,QVQIVESGGRIVQAGGSIRLSCAASGSTFLFYAMGRSRQAPGKERQLVAAISYSGGSTFYADSVKGRFTISRDNAKNTVYLQMNSLKPEDTAVYYCAAESYSYGFTHEYWGQGTQETVSS,high polyreactivity
13,QVQLVESGGGLVQAGGSLRLSCAASGRTFYGYAMGWYREAPGKERELVASISWSTGSTHYADSVKGRFTISRDNAKNTVYLQMNSLKPEDTAVYYCAAPFWRDSYVQIDYDYWGQGTQVTVSS,low polyreactivity
14,QVQLVESGGGLVQAGGSLRLSCAASGFIFWYYTMGGYRQAPGKERELVAAISRSGASTYYADSVKGRFTISRDNAKNTVYLQMNSLKPEDTAVYYCAKDYQTYSGSSDFDYWGQGTQVTVSS,high polyreactivity
15,QVQLVESGGGLVQAGGSLLLSCAASGNTFYKYTMGWYRQAPGKERELVAVISSSSGSTYYADSVKGRFTISRDNAKNTVYLQMNSLKPEYTAVYYCKKRGWWDLRHYYWGQGTQVTVSS,low polyreactivity
16,QVQLVESGGGLVQAGGSLRLSCAASGSTFDDYAMGWYRQAPGKERELVAAINSDCGGTYYADSVKGRFTISRDNAKNTVYLQMNSLKPEDTAVYYCNVEYEDYYAQRYGYDYWGQGTQVTVSS,low polyreactivity
17,QVQLVESGGGLVQAGGSLRLSCAASGIIFGYYAMGWYRQAPGKERELVAAISRRGGSTYYADSVKGRFTISRDNAKNTVYLQMNSLKPEDTAVYYCAAVELRLSTPDMESWGQGTQVTVSS,high polyreactivity
18,QVQLVDSGGGLVQAGGSLLLSCAASGHTLYRNAMGWYRQAPGKERELVAAITSRGGSTFYADSVKGRFTISRDNAKNSVYLQMNCLQPEDTAVYYCNTARGTAPAHDYWGQGTQVTVSS,low polyreactivity
19,QVQLVESAGGLVQAGGSLRLSCAASGIIFPVYAMGWYRQAPGKERELVAAITSSGGSTYYADSVKGRFTISRDNAKNTVYLQMNSLKPEDTAVYYFAAVRKSRFDYGGQGTQVTVSS,high polyreactivity
20,QVQLVESGGGLVQAGGRLRLSCAASGSTFGTNDMGWYRQAPGKEREFVASIDWSGDSTNYADSVKGRFTISRDNAKNTVYLQMNSLKPEDTADYYCAARVFPQIYYTSYDYWGQGTQVTVSS,high polyreactivity
21,QDQLVESGGGLVQAGGSLRLTCAASGSTFGVYTMGWYRQAPGKERELVAAITKSGGSTYYADSVKGRFTISRDNAKNTVYLQMNSLKPEETAVYYCATDADRPPRTPDISYVSNFDYWGQGTQVTVSS,low polyreactivity
22,QVQLVESGGGLVQAGGSLRLSCAASGFTLGRYAMGWYRQAPGKERELVAAISSGGRTYYADSVKGRFTISRDNAKNTVYLQMNSLKPEDTAVYYCAADPRYISYDYWGQGTQVTVSS,low polyreactivity

row,Sequence,polyreactivity (PSR sort gate)
1,QVQLVESGGGLVQAGGSLRLSCAASGSTSLGYAMGWYRQAPGKERELVASISWTGGGTYYADSVKGRFTLSRDNAKNTVYLQMNSLKPDDTAVYYCAADLTGYHPYIYGYWGQGTQVTVSS,low polyreactivity
2,QVQLVESGGGLVQAGGSLRLSCAASGSTFTTYPMGWYRQAPGKERELVAAISTNGGRTFYADSVKGRFTISGDNAKKTVYLQMNSLKPEDTAVYYCAAEYGLYAPGYYYWGQGTQVTVSS,low polyreactivity
3,QVQLVESGGGLVQAGGSLRLSCAASGNIFDRYAMGWYRQAPGKERELVAGITWSGGSTYYADSVKGRFTISRDNAKNTVYFQMTSLKPEDTAVYYCGKANYYWGQGTQVTVSS,low polyreactivity
4,QVQLVESGGGLVQAGRSLRLSCAASVFTFYHYAMGWYRQAPGKVRELVAAISNSGVSTYYADSVKGRFTISRDNAKITVYLQLNSLKPEDTAVYYCNAVYQSYHISGDDYWGQGTQVTVSS,high polyreactivity
5,QVQLVESGGGLVQAGGSLRLRCAASGSIFNSYAMGWYIQAPGKERELVAAISIRGTRTYYADSVKGRFTISRDNAKNTVYLQMNSLKPEDTAVYYCAADASYTEGMDYWGQGTQVTVLS,high polyreactivity
6,QVQLVESGGGLVQAGGSLRLSCAASGFILATYAMGCYRQAPGKERELVAAISASGSSTYYADSVKGRFTISRDNAKNTVYLQMNSLKPEDTAVYYCAASWGYGALTPDMGYWGQGTQVTVSS,low polyreactivity
7,QVQLVESGGGLVQAGGSLRLSCAASGFTFRYYTMGWYRQAPGKERELVAAITWSGGSTYYADSVKGRFTISRDNAKNTVYLQMNSLKPEDTAVYYCNAYPSYVSFDYWGQGTQVTVSS,high polyreactivity
8,QDQHVESGGGLVQAGGSLRLSFADSGITFDYYAMGWYRQAPGKERELVAAISVSGGDTYYADSVKGRFTISRDNAKNTVYLQMNRLKPQDTSVYYCAAEEVSPRWYDYWGQGTQVTVSS,low polyreactivity
9,QVQLVESGGGLVQAGGSLRLSCAASGRTFPRYVMGWYRQAPGKERELVAAITSSGGSTYYADSVKGRFTISRDKAMNTVYLQMNSLKPEDTAVYYCAAFARPYSGQYAYRLDYWGQGTQVTVSS,high polyreactivity
10,QVQLVESGGGLVQAGGSLRLSCAASGRIFDGNAMGWYRQAPGKERELVAAISRIGGTYYADSVKGRFTISRDNAKNTVYLQMNSLKPEDTAVYYCAADPSSVGYHVEYDYWGQGTQVTVSS,low polyreactivity
11,QVQLVESGGGLVQAGGSLRLSCAASGFIFVNYMGWYRQAPGKERELVAAISRGGSTNYADSVKGRFTISRDNAKNNVFLQMNSLKPEDTAVYYCAAETWYSGYTYDYWGQGTQVTVSS,low polyreactivity
12,QVQLVETGGGLVQAGGSLRLSCAASGSTFEYYAMGWYRQAPGKERELVAAISSGPSTTYADSVKGRFTISRDNAKNTVYLQMNSLKPEDTAVYYCARRDGTTQALFGYDYWGQGTQVTVSS,low polyreactivity
13,QVQLVESGGGLVQAGGSLRLSCAASGSIFGAYAMGWYRQAPGKERELVAAITWRGGSTYYADSVKGRFTISRDNAKNTVYLQMNSLNPEDTAVYYCATDTWGSYYDDDDYWGQGTEVTVSS,high polyreactivity
14,QVQLVESGGGLVQAGGSLRLSCAASGRIFTNYAMGWYRPAPGKEREYVAAISWSGGSTYYADSVKGRFTISRDNAKNTVYLQMNSLKPEYTAVYYCAAVGYAGLPYGLRPNNSGYWGQGTQVTVSS,low polyreactivity
15,QVQLVESGGGLVQAGGSLRLSCAASGFTFERNTMGWYRQAPGKERELVSTITRRGTSTYYADSVKGRFTISRDNAKNTVYLQMNSLKPEDTAVYYCAVYGYRTKYGYWGQGTQVTVSS,high polyreactivity
16,QVQLVESGGGLVQAGGSLRLSCAASGPTFFLYDMGWYRQAPGKERELVAAITSSGGDTYYADSVKGRFTISRDNAKNTVYLQMNSLKPEDTAVYYCAAEVWFPDRWMDYWGQGTQVTVSS,high polyreactivity
17,QVNLVQSAGGLVQAGCSLRLSCPASGFILYKNAMGRYRQKPGKERELVAISSSGGSTYYADSVKGRFTISRENAKNTVYLLMNSLKPEDTAVYYCGAYIYGTYYYWGQGTQVTVSS,high polyreactivity
18,QVQLVESGGGLVQAGGSLRLSCAASGSIFIQYAMGWYRQAPGKERELVAAINSSGGRTYYADSVKGRFTISRDNAKNTVYLQMNRLKPEDTAVYYCAADHGSSFDWGQGTQVTVSS,low polyreactivity
19,QVQLVESGGGLVQAGGSLRLSCAASVRTQPRYAMGRYRQAPGKERDLVAAISRSGGSTHYADSVKGRFTISRDNAKNTVYFQMNSLKPEDTAVYYCATQRYPYRFYAFQYYYWGQGTQVTVSS,high polyreactivity
20,QVQLVESGGGLVQAGGSLRLSCAASGITLYNYAMGWYRQAPGTERELVAAISLSGGRTYYADSVKGRFTISRDNAKNTVYLQMNSLKPEDTAVYYCAADWLNSDPYNYWGQGTQVTVSS,low polyreactivity
21,QVQLVESGGGLVQAGGSLRLSCAASGFIFSRNVMGWYRQAPGKERELVAAISRSGGSTYYADSVKGRFTISRDNAKNTVYLQMNSLKTEYTAVYYCAASRINNVYLLKGDYWGQGTQVTVSS,high polyreactivity
